Source: PMC11822720

Molecular target: Centrolobium microchaete seed lectin (Centrolobium microchaete)
Experiment: crystal structure; CML co-crystallised with 5 mM MDM; 200 mM ammonium sulfate, 100 mM HEPES pH 7.5, 25% PEG 3350; space group C121, one dimer per asymmetric unit; dimer also checked by PISA

stoichiometry N: 2
Substance: Centrolobium microchaete seed lectin (natural protein)
